# The RNAGym collection of RNA variant scans (doi:10.1073/pnas.2313332121)
# B1: TPR t1 (parent)
# chain: GACCAAUCUGCCCUCAGAGCUCGAGAACAUCUUCGGAUGCAGAGGAGGCAGGCUUCGGUGGCGCGAUAGCGCCAACGUCCUCAACCUCCAAUGCAUCCCACCACAUGAUGAUGCCUGAAGAGCCUUGGUUUUUUG
# Variants of: B1
# Experiment: polymerase ribozyme fitness, log enrichment relative to wild type (log ratio); higher = more active; in vitro selection for triplet polymerase activity
# Outline: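 Genotype fitness is the logarithm of its enrichment divided by wild-type enrichment, using inverse-variance-weighted averages of replicates. That logarithm is base 2. Enrichment was measured by Illumina sequencing of input and output libraries from one triplicate in vitro selection round, with frozen incubation at −7 °C, on PCR-built, transcribed mutant libraries of each subunit of a heterodimeric triplet polymerase ribozyme, retaining genotypes with ≥10 input reads and ≥1 read per output.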
row,Variant,polymerase ribozyme fitness (log ratio)
1,U96A A105U,-4.09
2,C89G A105G,-3.85
3,A95G A111G,0.572
4,U96A G117A G120A U130C,-3.72
5,C89U G135U,-0.983
6,U92C C102U,-4.04
7,C88G U125G,-1.44
8,C88U C94U U129G,-1.48
9,C94U G117C,-3.83
10,C89A C114A,-2.6
11,A90C C101G,-3.07
12,U92C G113A,-1.23
13,A91C C104U C123U,0.398
14,U92A C94U,-3.3
15,G93C C102U,-3.11
16,C94A C123G,-0.728
17,C94G G120A,0.357
18,G93C A111U,-5.12
19,G93A U131C,-0.974
20,G93U U130A U131C,-1.29
21,C89U G120A U129G,-1.07

row,Variant,polymerase ribozyme fitness (log ratio)
1,G93C A95C,-0.938
2,G93C C94A,-1.68
3,G93A G122A,-1.4
4,G93C C114U,-1.65
5,G93C C114A,-1.83
6,C88U C102U,-1.5
7,A90G U116A,-1.88
8,G93A C115U,-1.29
9,A91U G110C A121U,-5.81
10,A91C G120U,-1.5
11,C94U A111G,0.127
12,C88U C98G C114G,-6.17
13,A95C G110U,-2.32
14,U96A,-0.895
15,U96C,0.0976
16,G93A C98A,-5.11
17,G93C C104U A108G,-2.77
18,C89U G113C G120C,-3.26
19,C89G C115A G120C,-1.16
20,A90G C102A C124A,0.51
21,G93A U116A U130G,-4.69

row,Variant,polymerase ribozyme fitness (log ratio)
1,A95U A111U G120U,-5.49
2,A95C C123G,-0.428
3,G93U U106A,-1.03
4,A95U U109G G120C,-5.29
5,U96A C97A,-2.95
6,A90C U106C U116G A119G U125G,-1.75
7,C89A U112A A121U U131C,0.436
8,C89A A95C,-3.6
9,C89A U125A,-1.17
10,A95C G120U U129A,-1.76
11,C94A U125A,-0.423
12,C94A U125G,-1.1
13,C88G U96G,-0.738
14,C89U G117A,-2.43
15,G93U C98U,-2.33
16,A91G G120U,0.174
17,C94A C104A C123U,-1.42
18,G93A G113U,-3.19
19,A90C U109A A118U,-5.95
20,A95G C101A A111C,-1.91
21,A91G G113C G120A,-3.31

row,Variant,polymerase ribozyme fitness (log ratio)
1,C94G C102U,-3.04
2,U92G G117C U129C U133C,-4.13
3,C89A G127C U133G,-4.42
4,C89A G113U,-3.35
5,C88G U129A,-3.06
6,A95G G135U,-0.746
7,C89A G117A A121U,-0.932
8,C89G C123U,-0.521
9,A91C C123A,-1.1
10,A95U G113A G122A,-3.26
11,C89U A90G U112A C123G,1.96
12,G93A G110C,-5.32
13,G93A G110A,-1.24
14,A95C C102A U133A G135C,-2.89
15,C89A C94U U116A,-5.8
16,A90C A95G,-0.983
17,C94U G128C,-4.18
18,C89A U106A G113C C123G,-1.57
19,A90U G93A G110A U131G,-5.42
20,G93A C97U G127C,-2.77
21,A91U A111G,-1.26
